Assay results published in a protein production outcome set (Wang et al. 2014).

assay: label from the status in PepcDB records

Sequence | protein production
MLTKLGIKGRELLLTILPASLMAAMLGGYFTWMQLSELQSQLLLRGEMIAQDLAPLSASALGRKDKVLLSRIATQTLEQPDVRAVSFLDVDRSPLAHAGPTMISPTPIGNSSQLLNSTGTDATRYLLPVFGNQRHLTSPIIPAEADTLMGWVDVEISHNGTLLRGYRSLFASLLLIFTGLAITAVVAVRLSRTINGPMSQIKQAVSQLKDGNLETRLPPLGSRELDELASGINRMAATLQNAQEELQMSIDQATEDVRQNLETIEIQNIELDLARKEALEASRIKSEFLANMSHEIRTPLNGILGFTHLLQKSELTPRQFDYLATIEKSADNLLSIINEILDFSKIEAGKLVLDNIPFNLRDLLQDTLTILAPAAHAKHLELVSLVYRDTPLALSGDPLRLRQILTNLVSNAIKFTREGTIVARAMLEDETEEHAQLRISVQDTGIGLSSQDVRALFQAFSQADNSLSRQPGGTGLGLVISKRLIEQMGGEIGVDSTPGEGSEFWISLKLPKAREDKEESLNLPLEGLRAAVLEHHDLARQALEHQLEDCGLHTVVFTNLENLLNGVTAAHETPAAIDLAVLGVTTLEISPERLRQHIWDLENLNCKVMVLCPTTEYALFQLAVHDVYTQLQAKPACTRKLQKALSELIAPRAIRADIAPPLSSRAPRVLCVDDNPANLLLVQTLLEDMGAEVMAVEGGYAAVNAVQQEAFDLVLMDVQMPGMDGRQATEAIRAWEAERGQSSLPIVALTAHAMANEKRSLLQSGMDDYLTKPISERQLAQVVLKWSGLALRNPAPERQNESLEAHVGPLVLDPEEGLRLAAGKADLAADMLAMLLASLDADREAIRVARASQDVQALIERIHRLHGATRYCGVPQLRTACQRAETLLKQDAPHTGDALDDLDKAIVRLETEARVTA | failed
MLTLDLSAVRCQNGVPFLRYYWNLPVNQSHSGPLANNHAQLGLLFISVAVLFWGMLPIALKLSGSFIDPVTLTWFRFLVALIVSILVQWSAGSLKQFAALDAKVWLRLILAGLFLMLNYVSFVYSLDYLAPGAAQLNFQTSPFFLAFGGVLFFKERLNAIQLSCFASLALGMLMFFHPFLDFSATDNHEIWLGVMIVQFSALSWTTYALLQKSLLNRLSPANVLLVIYALGIFAMAPFSDFSQFAQMNSFDWQVALFCAANTLIAYGCFGQSMKYWPTAQVSAMLALTPVFSFSATALVVSIGWWPEVFRADELDALSLFGIGVIIVSVMVVQLLPLYRQRRARRLQPI | failed
MLTLEIFRALLLGFTIGLTGALVPGPMLFATIELSLKKGWLAGPEVVFGHILVELVLSILILFGVASFIGSGAISAVSIIGGFSLTVFGLLTVKDAKTTASAGLSPETSGLKLTSNPVALGLITSVSNPYFWIWWLTAGSALVLKAYELGIIISIAYILGHWTADLSWFTAISGSFSRGKTLFSQQTHRYILYACGTFLIFFGLYFMFNYKGAAQLF | failed
MLTMQEIKAHYRFTDEDAELLGSLFPLAETNKERLADQFYDYLLGIPETAEFLKEDLVLQKLKQTHQDWFVSLFAGSYDNRYIHNLQKIGHAHVRVGLNAHYVNVAMNVVRQFTLSIIQDNFPDPEERRQRREAVEKILDINLDIMSASYREEEMRKFFVSHRLESKLITATERFTYGLNLILVLALAGVSVSVVGLFIWDIGHIFQGSVEKGILSALGSLLILWMMIELIENEIKILKGGRFNILFFIGVIIVALIREILISTLRHDPLTTQVFLAGTLLVLGVVYFLVSKSQQPYTPH | failed
MLTNGMKYHEKLVDESSRNILFIGQDRISGLYDTIGILSIDRKNKKLKIIMIPRDLYIDYSSRVKHYLEENGRLNDPDFYKINAAHLIGPYMKYEGKFGAYSMNFLAELIKEIFDIEVHDYVRVNTEGFVQIVDLFGGVDINVPYDMHYDDIYQDLHIHINKGWNHLDGKKAEGFVRYRQSNDEMGNITHSIGDYERKKNQINFIKAFIEQHGTMSNIDKLPSLISTLNKYMKHSIGVGDVLTTYIGYAKDVVLYKYPIETYTVTGKDKYMNQRYYIVIENDNKTSKVVDLEHHHHHH | failed
MLTPLQIYFPIGVVLLVAVVLAFTMLGLANVLGPRRPSLVKQTPFECGSEPIGSARERFGVKFYVVALLFIVFDIEAIFLYPWAVLLLPDGQGYPGLGWPGFISMGIFVFTLVAGLVYVWKKGVLDWAD | failed
MLTQGNFDVLPVGDGAKRAQTVQPTVKLRIETIGVPRISDENGRNLTPVGSRNRVIPVILALSPRMTVGRRWLEALLWSDRGPDQASGSLRQALSSIRRQLGDARDILCANRTDIWMTSKDVTIDLLDDQQGVLQRLRAGRDFLEGIDILSEGFEDWLRQERASLLQMAEVELPARALPARLHATEAERPLSWTQEPPRFFLDQDLGLESDKLERFLTDAISTQLTQTVKSHFRADVRALDGTLTPVIVTPGARFAIRVTRINKAFAVLARMTEEPAGRLFWSRQLFIDSRETESMMDTAAALATEASEAMGARSFVASPAQQANVLAAEALADVFSFDPDRLRKAIRTLGRANDIDPHAPRPALKALALAFLALETRNTDRDHLIGEVTDLIRQSRALDSRNALALSFLADVQDLVFEDPQTALSYAKSALRSNPGIGYAYASLGALELRRGAAEAALIAASRAQRQLANSSLEVFSLMRLCVANLTAKDFDAAEQAAQRAAELAPTSQPPLRHLYALRLRRKDYAAARQTLRALRRLDPLFSMQYLRENPEFPAATIRTMQLHKLMDVELG | failed
MLTQYRQAQEDILRGRVKVRVVGQDKGGGVVMGEGVEIAPGARIEGPVLIGGACHIATGAVVGPFTVLGPYTRVEEGATVRRSVLWDNVYTGEGANVRGLEHHHHHH | not failed
MLTTQGVPEFCYITIIGLILFMIFKEVLSQSKFWRKDLESSSNMVILPLLISFSAIVAYKIAEIL | failed
MLVAAACFTIMNVLIKEASAKFALGSGELVFWRMLFSTVALGAAAVLRRDTFRTPHWKNHLNRSMVGTGAMLLLFYAVTHLPLATGVTLSYTSSIFLAVFSFLILKERISVYTQAVLLLGFAGVVLLLNPSFRSGQETAALAGLAGGAMSGWAYLKVRELSLAGEPGWRVVFYLSVTGVAMSSVWATLTGWHTLSFPSAVYLSCIGVSALIAQLSMTRAYKVGDKFTVASLSYMTVVFSALSAAFFLGEELFWQEILGMCIIILSGILSSIRPTAFKQRLQSLFRQR | failed
MLVKFWGVRGSLPAPLTPAQVQSKIAAVVQRITLKDIESQDSRERFLASLPKWLFGTIGSNTACVEVETDDGGHLIFDAGTGIRELGIDLMKRPDYGKNTTYHLFFSHFHWDHIQGLPFFNPAYDPRNKIIVYSTRKKAKEFLEDQMKYPYFPISMLGEDGFGASFEFKYIEPDQKYVEIGDTKIGWHRVRHPGGCTAYSVIEKGKKIIYSTDTELRPRDFERNEQNAEFYTDAEMLIIDAQYTLTDSILKEGWGHSTFSVAIDFAAGWNIKSIALFHHEPTYHDKKVFSLKQTADWYRDCSRAPDIKIFIAQEGRSFLI | failed
MLVLILSSGVSVAIATETNDLSIAAVLISPSDVVFAKEANTIVVYGITNSGTENLTNITVDVYASDVSGTVPVNTETISSLAGGGTTTIFITDPTIRDLQGSTVTYTAVIDPDNLIPETNEANNNRSSAAVPVRYNGYKGKRYWEGASDITTKHTYDFNGDVSSSSQPSTSYRSQGAWSNGRTETWGGSVPNPDLPSGSTIEQALLYVAYNWDETPGGYPWWNVSFNNVIIDYGNISTGNGILYTDMSNFGLYADYEYGLVVYDVTNLYNSTDYNGLKMYPYNSTFADLTALYPSTLVIIYQNPNMTRKQIFINEECDELGVSESTYGTTPEEATAYAPFTGMSIDVSNVSNATLYSFAGSAGPDEGNLLFNGNTVATNAWHGDAYTASASVFDVKNYINSTGNEAGIQGTVSGGMDVLQQILVVEYVESVPSALDANLTANVTSGTAPLTVQFTDLSEGNVTNWLWDFGDNTNSTSQNVSHTYNSPGTYTVNLTVTGPEGSDSEVKTDFITVSDSNVSAPVAAFTATPLVGTAPLQVAFTDQSTNSPTEWKWEYNNGSGWVEFSNETNASYSFATAVPYDIQLTVSNSGGSDDETKLHYISVGNVREPLNTVQSGTVSGDLYISSPTTWPATEVNQTFTLPAAAVGNIQWAKLYVNTYSGSAANTYALSSTVKLDGDGDSTYESTLGTETMDIASLTNGASFPLNDHVNKVYSDYEAQYDVTSLISAANPAINVKSEAISGKNFDGRIKGVTLVVAYNNTSSTDQTYYWVNHGGDWSSPANGNTIFDTSGLSSGWVSAESKIRYFSYSDANYTFNGVAKTGSTPSNYSGLNTWDVTDNITAGQSSTLAYSKGSGSYKTTLATLKVKYETPGFSNKVTLGDTSPVSPTLASLNGRLYLAWKGDGNNNLNVMYSADNGMTFGNKYTSSETSPESPALCVHNNSLYIAWKGNGSNYLNVAQVTMNGDNITDFSNKVTLGDTSPVSPALASLNGRLYLAWKGDGNNNLNVMYSADNGMTFGNKYTSSETSPESPALCVHNNSLYIAWKGNGNNYLNVAQVTMNGDNITDFSNKVTLGDTSPVSPALASLNGRLYLAWKGDGNNNLNVMYSADNGMTFGNKYTSPETSPESPALCVHNNSLYIAWKGDGNNNLNVAQVI | failed
MLVNRIISATVAGLVAVVIGFASSVALIYQTVINLGGDASLASSWILTLGLSMGITSIALSFYYRVPILIAWSTPGAALLIANTQNFNLNEAIAGFMFSALLIFLCGITGWFEKLINKLPFQLASAMLGGILVNFGIDVFNQMNKAPLLVIVMFFTYLVCRQLMPKFTMLFVLIISVVLAWQLKLMTFTAFSWQLSEFTYISPEFNMSAVLGIGIPLFLVTMAAQNLPGIAVLKAHNYKAPVSSILSVTGFVNMLAAPFGGYAINLAAITAAICMTKDVDKDPKKRYWAGISGGGFYILMAISAGYLMQAFASLPNALIYSLAGMALFTTINSSIQQALSDDKMSEAAIITFLVTASNLSLWDISSVLWGLIAGSITLMTQSLLNRSNDKLC | failed
MLVSEMHGEVEAVKVGTEVQGRVLHWVYLYYYRNLLFDAGCPNTAQEVFEHFKGREIKAVLITHYHEDHIGAVNLFKEITDVYVPEESLEILRNPPDIPKYRKIGWGQPEKIEGVKVAKEVMKFDDVEVRMIKTPGHSFDHVSYLVDDKLFCGDLVINTAQMVCMREENLLKTIESIEKVLKYDFNYAYTGVGVASRDEVVEYLNYLKGLKEKAEMLYAEGKTIDEIVAACFPNPSQKAILMEFVSEKEWARENMVKSLLGLPRE | failed
MLVSPDTPRFLAARLLLGAWLACGAGAQAQTLLDTSAAIGVQNTLNQIQPGVTQVPGSLSVQFDACKMAPESCKDGQPIGAAPAPATSGQSAQNAQSAQPAPSQVAPAAPTTPTQTTPTPAGEAPATRPVPTVVPLTAEQQQLLQAAQAQFAAGRYPQARNEFEALIVRNYNNPEPHFGLGLALYQLGDLRGATFEFGQFMQFAPQRYEGPYNLGVIATREGRYPDALRLYGEALTLAQSAPPAARQVLLRALATEQGRVKDYVALAATYADLRAADPENVEYIFRHAQALYQAGQVADALPVTYAVLERKPSSLQAALLLADLYVAQGLPDRAVRELSAAAARVLTGTDRATLLLRQSDLLLAQNNLRGALNAASEARQEDRRLPAAIIREAELLAQFGQRPAAVRAYRDALALTPKSAPIQAALAALYLEGNQYPEAAQAAQQALKLTPDASTRARALYVQGVVAYRQGQYTQARTALNSSVLAVPDADSLLWLGLSYYALKDYASAVPVLSESVRLRPTPAARQNLAAALLATARYAEAEALLRGLVTDEVKNAEGWYLLGLSQRAQQRPDDARQSFKTAAGLGSARAKDALK | failed
MLVTVMIPTYNQKDYVGSAIESALAQTYADLEIVVADDASPDPGVAKVLERYRNHPKVRLYRNAQNLGRVANYRKTLYERARGEWVINLDGDDYLVDPCFVEDAVGVVKKHPDIVAVLGGRKVLQASGTHKVQQANVCLSGRVAPRDVFSGILDGTLFPYHNATLYSRTHALAIGFYEQDIVSSDLESFLRLFARGAVGVLPRIVGVWREHSGNTSGTMAFSDYLANIQVFESVMHTAEEPDIAVKSSFLKSWSSRYAYSKGKDYAYRLLKDSDSPSLCFGYLKRLSKVSSVAALRILIQPKVLFNLLARALPSQISRCFR | failed
